Data taken from patent US20090136475A1 (FRAUNHOFER GESELLSCHAFT ZUR FORDERUNG DER ANGEWANDTEN …, published 2009).

T1: CD30 molecule on the Hodgkin-derived CD30-positive cell line L540Cy (UniProt P28908 19-595, limits assumed)
T1 construct: whole, on cells; the cell lines are human-derived; also called CD30-positive cells
T1 sequence (looked up): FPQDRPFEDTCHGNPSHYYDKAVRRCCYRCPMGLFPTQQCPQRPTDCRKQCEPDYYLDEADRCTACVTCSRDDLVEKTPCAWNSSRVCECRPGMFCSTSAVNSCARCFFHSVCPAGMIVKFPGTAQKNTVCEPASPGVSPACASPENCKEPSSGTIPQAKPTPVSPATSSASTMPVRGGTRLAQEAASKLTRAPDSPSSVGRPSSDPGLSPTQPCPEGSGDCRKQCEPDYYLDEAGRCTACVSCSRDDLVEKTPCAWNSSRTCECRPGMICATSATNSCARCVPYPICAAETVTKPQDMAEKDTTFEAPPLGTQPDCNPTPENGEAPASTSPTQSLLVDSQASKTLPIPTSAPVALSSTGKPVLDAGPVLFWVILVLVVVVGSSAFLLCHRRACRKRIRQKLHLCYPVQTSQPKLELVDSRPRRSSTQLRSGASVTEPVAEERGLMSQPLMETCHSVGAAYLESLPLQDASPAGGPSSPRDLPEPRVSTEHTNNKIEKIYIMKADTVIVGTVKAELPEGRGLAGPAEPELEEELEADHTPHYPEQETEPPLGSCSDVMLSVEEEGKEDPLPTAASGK


How the values were obtained:
[1] = biological target: CD30 molecule on the Hodgkin-derived CD30-positive cell line L540Cy (UniProt P28908); assay: cell-based or functional assay
[2] = biological target: T1, CD30 molecule on the Hodgkin-derived …; assay: flow cytometry on L540Cy cells, detection by anti-penta-His and FITC goat-anti-mouse IgG
Protocol: Cell binding activity of the recombinant complexes (immunokinases) expressed in E. coli BL21 Star™ (DE3) was evaluated using a FACSCalibur flow cytometry instrument and CellQuest software (Becton Dickinson, Heidelberg, Germany). Cells were stained with recombinant protein as described (25). Briefly, ten thousand events were collected for each sample, and analyses of Intact cells were performed using appropriate scatter gates to exclude cellular debris and aggregates. 5×10⁵ cells were incubated for 1 h on ice with 50 μl of bacterial protein extract at a concentration of 30-40 μg/ml or 100 μl of the immunokuinase containing supernatants respectively. The cells were washed with PBS buffer containing 0.2% w/v BSA and 0.05% w/v sodium azide (PBA) and then incubated for 30 min with anti-penta-His moab (Qiagen) diluted 1:2 in PBA buffer. Cells were washed and incubated with fluorescein-iso-thiocyanate (FITC)-labeled goat-anti-mouse IgG (DAKO Diagnostica, Hamburg, Germany) for 1 h at 4° C. After a final wash, the cells were treated with 2 μl 6.25 mg/ml propidiumiodide and subsequently analyzed on a FACScalibur (Becton Dickison, Heidelberg, Germany).

binding result [2]	Molecule	calculated median IC50, growth inhibition of L540Cy cells, XTT-based colorimetric assay [1] [mg/L]
	recombinant complex (immunokinase) pMS-(L-DAPk2-Ki-4)-III/G, protein L-DAPk2-Ki-4-MH	0.004 to 0.035
binds	recombinant complex (immunokinase) pMT-Ki-4(scFv)-eEF-2K (other, Single-chain fusion: pelB signal peptide, enterokinase-cleavable His10 tag, anti-CD30 Ki-4 scFv, eukaryotic elongation factor-2 kinase; It was expressed in the periplasm of E. coli BL21 Star (DE3) and purified by IMAC and SEC) MGHHHHHHHHHHSSGHIDDDDKHMKLMAQPAMAQVKLQESGTELAKPGAAVKMSCKASGYTFTDYWMHWVKQRPGQGLEWIGYINPNTAYTDYNQKFKDKATLTADKSSSTAYMQLRSLTSEDSAVYYCAKKTTQTTWGFPFWGQGTTVTVSSGGGGSGGGGSGGGGSDIVLTQSPKSMAMSVGERVTLSCKASENVDSFVSWYQQKPGQSPKLLIYGASNRYTGVPDRFAGSGSGRDFTLTISSVQAEDLADYHCGQNYRYPLTFGAGTKLEIKRAAAELGGGGSMADEDLIFRLEGVDGGQSPRAGHDGDSDGDSDDEEGYFICPITDDPSSNQNVNSKVNKYYSNLTKSERYSSSGSPANSFHFKEAWKHAIQKAKHMPDPWAEFHLEDIATERATRHRYNAVTGEWLDDEVLIKMASQPFGRGAMRECFRTKKLSNFLHAQQWKGASNYVAKRYIEPVDRDVYFEDVRLQMEAKLWGEEYNRHKPPKQVDIMQMCIIELKDRPGKPLFHLEHYIEGKYIKYNSNSGFVRDDNIRLTPQAFSHFTFERSGHQLIVVDIQGVGDLYTDPQIHTETGTDFGDGNLGVRGMALFFYSHACNRICESMGLAPFDLSPRERDAVNQNTKLLQSAKTILRGTEEKCGSPRVRTLSGSRPPLLRPLSENSGDENMSDVTFDSLPSSPSSATPHSQKLDHLHWPVFSDLDNMASRDHDHLDNHRESENSGDSGYPSEKRGELDDPEPREHGHSYSNRKYESDEDSLGSSGRVCVEKWNLLNSSRLHLPRASAVALEVQRLNALDLEKKIGKSILGKVHLAMVRYHEGGRFCEKGEEWDQESAVFHLEHAANLGELEAIVGLGLMYSQLPHHILADVSLKETEENKTKGFDYLLKAAEAGDRQSMILVARAFDSGQNLSPDRCQDWLEALHWYNTALEMTDCDEGGEYDGMQDEPRYMMLAREAEMLFTGGYGLEKDPQRSGDLYTQAAEAAMEAMKGRLANQYYQKAEEAWAQMEE	
